Targets include laminin (human); fibrinogen (human); C9 (human) (UniProt P02748); C4BP (human); C4b (human); C8 (human); C5b6 (human) (UniProt P13671); plasminogen (human); C7 (human) (UniProt P10643).
What all share (assay): ELISA; dose-response: host component coated (1 μg/well); rLIC13086 at rising concentrations (0–5 μM in the methods; 0–0.5 μM or 0–5 μM in the legends), 2 h at 37°C; detected with HRP-conjugated anti-His mAb; KD from a non-linear fit of the specific binding equation (GraphPad Prism)
(In general: ELISA stands for enzyme-linked immunosorbent assay.)

The target of experiment [1] is plasma fibronectin (human).

Chain of UniProt P02748 (P02748 22-559): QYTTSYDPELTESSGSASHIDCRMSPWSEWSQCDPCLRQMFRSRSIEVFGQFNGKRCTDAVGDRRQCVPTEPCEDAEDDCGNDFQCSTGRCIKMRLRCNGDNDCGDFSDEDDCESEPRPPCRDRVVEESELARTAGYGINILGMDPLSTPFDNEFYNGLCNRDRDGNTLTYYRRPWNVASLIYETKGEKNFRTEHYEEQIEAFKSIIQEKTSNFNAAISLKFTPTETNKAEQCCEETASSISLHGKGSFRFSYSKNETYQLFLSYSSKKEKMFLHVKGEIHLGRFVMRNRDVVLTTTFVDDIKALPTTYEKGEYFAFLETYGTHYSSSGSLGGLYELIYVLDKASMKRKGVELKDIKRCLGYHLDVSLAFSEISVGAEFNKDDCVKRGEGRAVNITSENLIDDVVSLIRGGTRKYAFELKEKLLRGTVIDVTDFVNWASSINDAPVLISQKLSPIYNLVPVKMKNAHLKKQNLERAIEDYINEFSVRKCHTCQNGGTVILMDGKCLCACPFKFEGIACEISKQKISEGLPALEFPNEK
Chain of UniProt P10643 (P10643 23-843): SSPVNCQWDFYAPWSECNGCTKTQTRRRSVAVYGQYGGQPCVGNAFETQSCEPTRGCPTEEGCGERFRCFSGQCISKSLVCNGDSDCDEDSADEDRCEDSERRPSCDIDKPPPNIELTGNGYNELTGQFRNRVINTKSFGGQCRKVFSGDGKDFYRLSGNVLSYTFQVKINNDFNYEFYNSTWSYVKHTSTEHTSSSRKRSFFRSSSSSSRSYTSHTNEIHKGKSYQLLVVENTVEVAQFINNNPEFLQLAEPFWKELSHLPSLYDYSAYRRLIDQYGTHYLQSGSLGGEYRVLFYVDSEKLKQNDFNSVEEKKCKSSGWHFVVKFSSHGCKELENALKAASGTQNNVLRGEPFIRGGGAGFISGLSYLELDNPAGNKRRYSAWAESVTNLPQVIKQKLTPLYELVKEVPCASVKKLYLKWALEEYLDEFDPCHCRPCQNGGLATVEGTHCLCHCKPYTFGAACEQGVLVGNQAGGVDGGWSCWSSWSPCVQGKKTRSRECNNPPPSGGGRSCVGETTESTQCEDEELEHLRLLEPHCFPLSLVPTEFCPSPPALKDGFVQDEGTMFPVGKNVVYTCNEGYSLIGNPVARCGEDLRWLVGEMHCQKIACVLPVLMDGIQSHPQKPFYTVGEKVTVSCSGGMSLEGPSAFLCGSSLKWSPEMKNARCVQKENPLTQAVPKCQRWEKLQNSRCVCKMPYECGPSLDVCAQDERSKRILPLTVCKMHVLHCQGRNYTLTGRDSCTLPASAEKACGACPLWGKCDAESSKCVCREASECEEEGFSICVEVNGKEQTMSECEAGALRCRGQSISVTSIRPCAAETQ

In the case of “recombinant protein LIC13086 (natural protein)”, the Kd (usually the concentration at which binding is half-saturated) with laminin (human) worked out at 18.7 nM; with fibrinogen (human) it was 320 nM; with C9 (human), 818 nM; with C4BP (human) it was 8.9 nM; with C4b (human) it was 162 nM; in the experiment with C8 (human) it was 134 nM. The Kd with C5b6 (human) worked out at 40.3 nM; in the experiment with plasminogen (human) it was 10.1 nM; in experiment [1], 5.8 nM; with C7 (human), 35.8 nM.

Source of the values: publication PMC8280789.
